T1: Msn5 (S. cerevisiae exportin), wild type (S. cerevisiae, UniProt P52918 1-1224)
T1 sequence: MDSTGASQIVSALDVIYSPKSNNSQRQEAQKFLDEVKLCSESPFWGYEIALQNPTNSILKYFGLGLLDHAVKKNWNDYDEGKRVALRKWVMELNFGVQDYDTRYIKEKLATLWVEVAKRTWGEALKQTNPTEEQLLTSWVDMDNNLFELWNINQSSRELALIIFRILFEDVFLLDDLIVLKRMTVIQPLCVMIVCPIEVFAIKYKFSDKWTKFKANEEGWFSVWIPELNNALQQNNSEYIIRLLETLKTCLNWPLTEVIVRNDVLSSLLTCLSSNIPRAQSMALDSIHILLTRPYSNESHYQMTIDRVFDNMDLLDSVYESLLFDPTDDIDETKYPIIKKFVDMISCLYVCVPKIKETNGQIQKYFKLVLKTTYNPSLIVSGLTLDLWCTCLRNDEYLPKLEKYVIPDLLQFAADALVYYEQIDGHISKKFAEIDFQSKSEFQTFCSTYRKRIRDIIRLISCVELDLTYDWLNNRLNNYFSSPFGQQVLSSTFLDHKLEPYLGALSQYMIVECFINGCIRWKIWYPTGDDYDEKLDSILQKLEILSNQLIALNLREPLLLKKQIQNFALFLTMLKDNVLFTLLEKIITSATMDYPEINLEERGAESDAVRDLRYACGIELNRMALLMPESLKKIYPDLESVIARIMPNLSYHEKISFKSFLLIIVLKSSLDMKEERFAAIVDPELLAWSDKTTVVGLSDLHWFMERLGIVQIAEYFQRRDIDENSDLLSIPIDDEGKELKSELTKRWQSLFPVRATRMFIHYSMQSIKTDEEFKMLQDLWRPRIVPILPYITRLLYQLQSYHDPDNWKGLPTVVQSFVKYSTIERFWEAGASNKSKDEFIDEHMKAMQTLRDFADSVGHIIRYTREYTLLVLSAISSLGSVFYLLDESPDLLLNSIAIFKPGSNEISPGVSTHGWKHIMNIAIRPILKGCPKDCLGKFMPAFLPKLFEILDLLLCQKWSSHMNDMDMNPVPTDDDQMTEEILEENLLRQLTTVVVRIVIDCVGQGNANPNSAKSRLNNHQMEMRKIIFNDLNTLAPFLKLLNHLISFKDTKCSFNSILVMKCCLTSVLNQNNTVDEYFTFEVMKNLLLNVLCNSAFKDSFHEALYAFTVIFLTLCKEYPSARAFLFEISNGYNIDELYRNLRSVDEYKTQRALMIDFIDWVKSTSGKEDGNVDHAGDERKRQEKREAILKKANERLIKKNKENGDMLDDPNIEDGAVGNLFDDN


What follows are molecules tested against T1, Msn5 (S. cerevisiae exportin), wild type (assay: fluorescence polarisation). Conditions: not given.

Molecule | Kd [nM]
mNeonGreen-Pho4_(3-200), unphosphorylated (domain or fragment) RTTSEGIHGFVDDLEPKSSILDKVGDFITVNTKRHDGREDFNEQNDELNSQENHNSSENGNENENEQDSLALDDLDRAFELVEGMDMDWMMPSHAHHSPATTATIKPRLLYSPLIHTQSAVPVTISPNLVATATSTTSANKVTKNKSNSSPYLNKRRGKPGPDSATSLFELPDSVIPTPKPKPKPKQYPKVILPSNST | 2400
mNeonGreen-pPho4_(3-200) S128A (domain or fragment, phosphorylated in vitro by Pho80-Pho85: pS100, pS114, pS152) RTTSEGIHGFVDDLEPKSSILDKVGDFITVNTKRHDGREDFNEQNDELNSQENHNSSENGNENENEQDSLALDDLDRAFELVEGMDMDWMMPSHAHHSPATTATIKPRLLYSPLIHTQSAVPVTIAPNLVATATSTTSANKVTKNKSNSSPYLNKRRGKPGPDSATSLFELPDSVIPTPKPKPKPKQYPKVILPSNST | 120
mNeonGreen-pPho4_(3-200) 102–107GKK (domain or fragment, phosphorylated in vitro by Pho80-Pho85: pS100, pS114, pS128, pS152) RTTSEGIHGFVDDLEPKSSILDKVGDFITVNTKRHDGREDFNEQNDELNSQENHNSSENGNENENEQDSLALDDLDRAFELVEGMDMDWMMPSHAHHSPGKKGKKKPRLLYSPLIHTQSAVPVTISPNLVATATSTTSANKVTKNKSNSSPYLNKRRGKPGPDSATSLFELPDSVIPTPKPKPKPKQYPKVILPSNST | 110
mNeonGreen-pPho4_(3-200) S100/152AA (domain or fragment, phosphorylated in vitro by Pho80-Pho85: pS114, pS128) RTTSEGIHGFVDDLEPKSSILDKVGDFITVNTKRHDGREDFNEQNDELNSQENHNSSENGNENENEQDSLALDDLDRAFELVEGMDMDWMMPSHAHHAPATTATIKPRLLYSPLIHTQSAVPVTISPNLVATATSTTSANKVTKNKSNSAPYLNKRRGKPGPDSATSLFELPDSVIPTPKPKPKPKQYPKVILPSNST | 46
mNeonGreen-pPho4_(3-200) R3mut (domain or fragment, phosphorylated in vitro by Pho80-Pho85: pS100, pS114, pS128, pS152) RTTSEGIHGFVDDLEPKSSILDKVGDFITVNTKRHDGREDFNEQNDELNSQENHNSSENGNENENEQDSLALDDLDRAFELVEGMDMDWMMPSHAHHSPATTATIKPRLLYSPLIHTQSGGSGGSSPNLVATATSTTSANKVTKNKSNSSPYLNKRRGKPGPDSATSLFELPDSVIPTPKPKPKPKQYPKVILPSNST | 280
mNeonGreen-pPho4_(3-200) S114/128AA (domain or fragment, phosphorylated in vitro by Pho80-Pho85: pS100, pS152) RTTSEGIHGFVDDLEPKSSILDKVGDFITVNTKRHDGREDFNEQNDELNSQENHNSSENGNENENEQDSLALDDLDRAFELVEGMDMDWMMPSHAHHSPATTATIKPRLLYAPLIHTQSAVPVTIAPNLVATATSTTSANKVTKNKSNSSPYLNKRRGKPGPDSATSLFELPDSVIPTPKPKPKPKQYPKVILPSNST | 1000
mNeonGreen-pPho4_(3-200) S114A (domain or fragment, phosphorylated in vitro by Pho80-Pho85: pS100, pS128, pS152) RTTSEGIHGFVDDLEPKSSILDKVGDFITVNTKRHDGREDFNEQNDELNSQENHNSSENGNENENEQDSLALDDLDRAFELVEGMDMDWMMPSHAHHSPATTATIKPRLLYAPLIHTQSAVPVTISPNLVATATSTTSANKVTKNKSNSSPYLNKRRGKPGPDSATSLFELPDSVIPTPKPKPKPKQYPKVILPSNST | 250
mNeonGreen-pPho4_(3-200) R4mut (L131A/T134A) (domain or fragment, phosphorylated in vitro by Pho80-Pho85: pS100, pS114, pS128, pS152) RTTSEGIHGFVDDLEPKSSILDKVGDFITVNTKRHDGREDFNEQNDELNSQENHNSSENGNENENEQDSLALDDLDRAFELVEGMDMDWMMPSHAHHSPATTATIKPRLLYSPLIHTQSAVPVTISPNAVAAATSTTSANKVTKNKSNSSPYLNKRRGKPGPDSATSLFELPDSVIPTPKPKPKPKQYPKVILPSNST | 150
mNeonGreen-pPho4_(3-200) R2mut (domain or fragment, phosphorylated in vitro by Pho80-Pho85: pS100, pS114, pS128, pS152) RTTSEGIHGFVDDLEPKSSILDKVGDFITVNTKRHDGREDFNEQNDELNSQENHNSSENGNENENEQDSLALDDLDRAFELVEGMDMDWMMPSHAHHSPATTATIKPRLLGSPGGSGQSAVPVTISPNLVATATSTTSANKVTKNKSNSSPYLNKRRGKPGPDSATSLFELPDSVIPTPKPKPKPKQYPKVILPSNST | 800

These molecules were tested against Msn5 (Kap142) (UniProt P52918) (assay: fluorescence polarization titration, mNeonG-pPho4). Conditions: reference: wild-type pPho4; sites S114.

Molecule | KD
Pho4 3-200 (from UniProt P07270) pPho4 S114A | weaker; reference 44[26,71]

What follows are molecules tested against Pho4_(1-200) S114/128DD and Pho4_(1-200) S114/128EE (assay: fluorescence polarisation). Conditions: not given.

Molecule | Kd [nM]
Msn5 (S. cerevisiae exportin), wild type (natural protein) MDSTGASQIVSALDVIYSPKSNNSQRQEAQKFLDEVKLCSESPFWGYEIALQNPTNSILKYFGLGLLDHAVKKNWNDYDEGKRVALRKWVMELNFGVQDYDTRYIKEKLATLWVEVAKRTWGEALKQTNPTEEQLLTSWVDMDNNLFELWNINQSSRELALIIFRILFEDVFLLDDLIVLKRMTVIQPLCVMIVCPIEVFAIKYKFSDKWTKFKANEEGWFSVWIPELNNALQQNNSEYIIRLLETLKTCLNWPLTEVIVRNDVLSSLLTCLSSNIPRAQSMALDSIHILLTRPYSNESHYQMTIDRVFDNMDLLDSVYESLLFDPTDDIDETKYPIIKKFVDMISCLYVCVPKIKETNGQIQKYFKLVLKTTYNPSLIVSGLTLDLWCTCLRNDEYLPKLEKYVIPDLLQFAADALVYYEQIDGHISKKFAEIDFQSKSEFQTFCSTYRKRIRDIIRLISCVELDLTYDWLNNRLNNYFSSPFGQQVLSSTFLDHKLEPYLGALSQYMIVECFINGCIRWKIWYPTGDDYDEKLDSILQKLEILSNQLIALNLREPLLLKKQIQNFALFLTMLKDNVLFTLLEKIITSATMDYPEINLEERGAESDAVRDLRYACGIELNRMALLMPESLKKIYPDLESVIARIMPNLSYHEKISFKSFLLIIVLKSSLDMKEERFAAIVDPELLAWSDKTTVVGLSDLHWFMERLGIVQIAEYFQRRDIDENSDLLSIPIDDEGKELKSELTKRWQSLFPVRATRMFIHYSMQSIKTDEEFKMLQDLWRPRIVPILPYITRLLYQLQSYHDPDNWKGLPTVVQSFVKYSTIERFWEAGASNKSKDEFIDEHMKAMQTLRDFADSVGHIIRYTREYTLLVLSAISSLGSVFYLLDESPDLLLNSIAIFKPGSNEISPGVSTHGWKHIMNIAIRPILKGCPKDCLGKFMPAFLPKLFEILDLLLCQKWSSHMNDMDMNPVPTDDDQMTEEILEENLLRQLTTVVVRIVIDCVGQGNANPNSAKSRLNNHQMEMRKIIFNDLNTLAPFLKLLNHLISFKDTKCSFNSILVMKCCLTSVLNQNNTVDEYFTFEVMKNLLLNVLCNSAFKDSFHEALYAFTVIFLTLCKEYPSARAFLFEISNGYNIDELYRNLRSVDEYKTQRALMIDFIDWVKSTSGKEDGNVDHAGDERKRQEKREAILKKANERLIKKNKENGDMLDDPNIEDGAVGNLFDDN | 2000 to 3000
